From the DeepSol protein solubility set

assay: soluble on expression in E. coli; label from the status in PepcDB or PDB records

Sequence | soluble on expression in E. coli
MGSDKIHHHHHHMARIARVIATGIPHHVTQRGNRRMPTFFNDEDYRAYIALLGEWCRKCGVDIWAYCLMPNHVHLIAVPETDDGLRRGIGEAHRRYSRMINFRENWRGHLWQGRFASFPMDESYLLAAARYVEMNPVRARLTPKAALWPWSSARAHLDRMDDELVKVAPLLELVGDWSLFLAGTGEEDQLNDIRKHERTGRPLGTEEFVERLESALERPLKKGKPGPKGNDN | not soluble
MSLKKFSCGFEVTKEVIGGKWKGLVLYFLMNGPKRTSELKRIIPNITQKMLIQTLRELEASGLVSRKMYNQVPPKVEYSSTELGESLKPILQELCQWGGYYAEQEYAEGEYEIVQPEQLSEGGSHHHHHH | soluble
MGSDKIHHHHHHMLSRILEKYRENGIQGIVLALISRFPGVRAVCVYYVYRLPFDKLVRKQLSVGNLKVVQVKSDSMGDLIRVQDKPDIFGERFQMGHYGFVAYVNNDPVAYLWGQEGPVHVERRFGFEVPIKDNQVFYYDSYTIPEWRKSGVGRALIQESIDFFKNGLGKSELIAIIETGNLVSQKTYERMGFVREAMHIHLDIIGKKINKQLARMVTQ | not soluble
AMNTDLKLPAGKTMTIEDVKQLLERYQMALKKTGEQLGWAYEQAAFPYTVRIHESVLYLQGDGRLYKGMAISVRTAGEETFIDIALPPGATHGDKGKANEFSKWLAKTLGGELHLFSGRTMVFGSA | soluble
MGSDKIHHHHHHMNYRTIAKNGSTEETIKKSRFICQAKRITNEAEGRDFITQIKKEHYKARHSCSAMIIGENSDIKRSSDDGEPSGTAGIPMLSVLEKKQLTNLVLVVTRYFGGIKLGTGGLIRAYSGGAANTLKALGIVEVKKQTGLRLELTYPQYQTFANFLKEHQLQEYDTDFSVTVNTTIYVDKKDIEFTLDQLTEFYQGKLKSHVAGNQIIEVPVI | not soluble
MKPLAQLLLFLLQFQKGNLVSQSSSTPLMVNGVLGESVTLPLEFPAGERIQFITWLCNGTSFAFLEPYEGKSPKIYVTHPKWQKRLSFTQSYSPQLSNLEMENIGFYSAQIATETSAKLSSYTLRIFKQLPRPQVRVDSIISENGICNAILRCSVEEGGETITYEWTSMGPGAAVSHVGSVLYGSWSLHDLDWIYTCTALNPVSYSNSTLTLAAQLCASSKAAEGTYCPVKWIFLGNRLLLLVFLGVLRTWHIQAQVLSKPLRPNSG | not soluble
MGSDKIHHHHHHMAVSELQVQSALKELIDPNTHKDYVTTKSARNIKIDGDAVSVDIALGYPAQSQLATIKQQVEDKLKTLDGVSKATANVSFKIVSHSVQRGVKLIPNVKNIIAVASGKGGVGKSTTAVNLALALAAEGARVGMLDADIYGPSQPTMLGITDKPESTDGKNLDPLIGHGIQAMSIGFLIDVETPMVWRGPMVTQALEQLLNNTNWNELDYLVVDLPPGTGDIQLTLAQRVPVTGAVIVTTPQDIALIDARKGLKMFEKVGIPIIGVVENMSLHICSNCGHEERIFGEGGGERMCRDYNVEFLGALPLDSSIRADTDSGKPSVVSDPDGRVTEIYKQIARRVAVKIGETAVDHSAKFPNIVISNT | not soluble
MGVDPSVKVEYKAPTVTYDQVGFMSKSTLMTHEQLISVRSAKVRQSVKITVKEQIPKSHDDKIKVSIVSPEIKSSSSSKNSSPPDARLNKDHNLEWCVILAPGQHRLLPVRYTIEHPASESLSYKFN | not soluble
RIQKLREATDKVASGDYDIHLENSYGDEIGVLASDFNIMAKKLKQSRDEIERLEKRRRQFIADVSHELKTPLTTINGLVEGLNSHTIPEDKKDKCFSLISEETKRMLRLVKENLDYEKIRSQQITLNKLDVPLIEVFEIVKEHLQQQAEEKQNKLMIQVEDHVIVHADYDRFIQILVNITKNSIQFTQNGDIWLRGMEGYKETIIEIEDTGIGIPKEDIEHIWERFYKADISRTNTAYGEYGLGLSIVRQLVEMHQGTVEIKSE | not soluble
MFVMEKVLFPFSAVVDEDDLKMALILNAIDQRIGGVLIMGPKGVAKSTIARSLTDLLPDIDVVKDCPFKCDPHDPSSMCDECIKKYRDGTIVSEKRKIPFVNMPVTATLDRVVGSLDIKRAIDEGLRALQPGLLAEANRGIIYIDEVNLLDDSVVDSILDSAASGINVVEREGVSVTHPARFILIGTMNPEEGDLRPQLKDRFGLSVTAVQPSDPEELIEISNRVEEFDRDPEAFRRKYEKIQNEIRNRIMRARSLLPSVVIDEDLKRFIAEVVIKLQAGNRAMITAVKASKAIAAFNGRDRVNIDDVKEALNLVLKHRVKDSAMIRGTIEKESRDLSTRSVEAGPHSGYEEGSESSGRRDMKAGNGKDEEKDVEVSAAFDEESNRSGRTGNADIFRILDQNRPGDHFDYRASLVNMIMNGRRRMKYEDLAFVSSRSRASIPVILAVDASRSMETMHRIALARGIARSFLHSAYRMRVKLSYITFYGTESHLMVEPTRNLDLIDREISRTVPQGKTPIPAALKMMYDISSRYRQRTVSIMITDGRANVPLGNDVTHDVREWSAKLGTRSDLFLISSTMGSERFMPSYNEDICRYSGGQLIEMDGNGHIALYSGYRRY | soluble
MYALEIEQLRKTYAGGFEALKGISLQVKKGDFYALLGPNGAGKSTTIGIISSLVNKTSGKVTVFGYDLDSQLELAKQKLGLVPQEFNFNPFETVEQIVLQQAGYYGVPKALAKERAKKYLTQLDLWEKRSERARNLSGGMKRRLMIARALMHEPQLLILDEPTAGVDIELRRSMWEFLKQINAQGVTIILTTHYLEEAEMLCRHIGIIQRGELIENTTMKSLLGKLHVETFVLDVDGNAPIAPLQGVVKQQMVEGSLEIELEKSQGINHVFTQLTEQGVKVLSMRNKVNRLEELFVSIVNSGKRG | not soluble
MGSDKIHHHHHHMNTLQRRKTHQVRIDHITVGSEAPVVIQSMTNTDTADAKATALQIKELSDAGSEMVRITVNSPEAASKVAEIRRRLDDMGYATPLIGDFHFNGERLLAEFPECGKALSKYRINPGNVGKGVKGDEKFAFMIRTAAENDKAVRIGVNWGSLDQSLAKRMMDANLASSAPKPPEEVTKEALIVSALESAEKAVLLGLPEDKIILSCKVSAVQDLIQVYRELGSRCAYPLHLGLTEAGMGSKGIVASTAALSVLLQEGIGDTIRISLTPEPGSPRTQEVVVGQEILQTMGLRSFTPMVTACPGCGRTTSTVFQELAQDVQNYLRQKMSIWRTLYPGVESLNVAVMGCVVNGPGESKLADIGISLPGTGETPVAPVYVDGERKVTLKGDNIATEFLAIVEEYVKTNYGENGSKRNQNKIIPIQSL | not soluble
MNYFVGNSLGVNLTGIEKAIINRLNLFKEMGRPAQCVFLSWNRYLYRNAQNYITSSDYINMYDFFQEATYLERNEPFDWLSYWTDECHYTLKHVENSHDFRIYDQERFLMYAHFQDPKYRILDYVNHFDSQRRKVKRDFYDVRGFLSCSRILVDKQQTLCEFFYNPEGDTKLEKYFSYKDGKPEVQKIIVYYANKQYFFNNETELGAFFIKQLYQHGDLFFSDRNVYTAPIFNLTPESIPVVAVLHSTHIKNIDALDSSPFKNVYKAMFENLSRYRAIIVSTEQQKLDVEKRINHTIPVVNIPVGYSETIDTPVQTLDQRSVKLISVARYSPEKQLHQQIELIKRLVSYVPKIELHMYGFGSESKKLNELIQKYGLENHVYLRGFLSNLDQEYSDAYLSLITSNMEGFSLALLESLAHGVPVISYDIKYGPNELITSDFNGYLITKNDEDALFDKVKYVIDHPEVQQRLSKGSLAKAQQYSKASLIKQWDQFVRLI | not soluble
MDFASSDGGGRTTTSAKIVVAGGFGVGKTTFVGAVSEINPLRTEAVMTSASAGIDDLTHTGDKTTTTVAMDFGRITLDQDLILYLFGTPGQDRFWFMWDDLVRGAIGAVVLVDTRRLADCFPAVDYFENSGLPFVIALNGFDGHQPYNPEEVREALQIGPDAPIITTDARHRADAKSALITLVEHALMARLRLEHHHHHH | not soluble
VAERFVVTGGNRLSGEVAVGGAKNSVLKLMAATLLAEGTSTITNCPDILDVPLMAEVLRGLGATVELDGDVARITAPDEPKYDADFAAVRQFRASVCVLGPLVGRCKRARVALPGGDAIGSRPLDMHQAGLRQLGAHCNIEHGCVVARAETLRGAEIQLEFPSVGATENILMAAVVAEGVTTIHNAAREPDVVDLCTMLNQMGAQVEGAGSPTMTITGVPRLHPTEHRVIGDRIVAATWGIAAAMTRGDISVAGVDPAHLQLVLHKLHDAGATVTQTDASFRVTQYERPKAVNVATLPFPGFPTDLQPMAIALASIADGTSMITENVFEARFRFVEEMIRLGADARTDGHHAVVRGLPQLSSAPVWCSDIRAGAGLVLAGLVADGDTEVHDVFHIDRGYPLFVENLVSLGAEIERVCC | not soluble
MEERLSTTSSYPSHPGRSVEEDHNTLLASSSISSIIRGTRGHLNNFIESVGNWLVPSSSGRDDDAVSLDSCQSVYSPVRHHINSGTGGGILMEPSSIHVPENYYSVTIGEAQMVVLKRYQNLRLIGSGAQGIVCSAFDTVRNEQVAIKKLSRPFQNVTHAKRAYRELKLMSLVNHKNIIGILNCFTPQKKLDEFNDLYIVMELMDANLCQVIQMDLDHERLSYLLYQMLCGIRHLHSAGIIHRDLKPSNIVVRSDCTLKILDFGLARTAIEAFMMTPYVVTRYYRAPEVILGMGYKENVDVWSIGCIFGELIRGRVLFPGGDHIDQWTRIIEQLGTPDRSFLERLQPTVRNYVENRPRYQATPFEVLFSDNMFPMTADSSRLTGAQARDLLSRMLVIDPERRISVDDALRHPYVNVWFDEIEVYAPPPLPYDHNMDVEQNVDSWREHIFRELTDYARTHDIYS | not soluble
SEDGGWNTIESDPAVFTQLLEDLGVKDVKVEEVLQLDAAFLRSLEPVHGLIFLFKWLPDQGSEQELSFSQDVDLFFANQVIQNACGTQALLSVVFNAKDLELGSELAEFKEFTKDFDPQTRGLALSNSETIRSAHNSLSGLQHFSFEFDEKEKSDSFHFISYVPFQGRIYELDGLKKGPICRGSYTAERHWTDVAISEIEKRIERYGEGEIRFNLLAVVRDPLKIWQQELLSYQTALESCSLEVERMSISMQMKEIQTRMEDEKKRRESIRRESNRRRHNMLPFIFHLIKWLHENSDLSFT | soluble
MAHHHHHHMDARVHRSKRGCGRVLKRSRASSPEVVAEVGTGRPGDPFVLPLRSSPNGSGCHHCPEHSCDCLYVSKELERCYLSLQVSRQVTCKGRRELCAKSVLPPFVARLLRVANVTADDTFYDLGCGNGSVLFHVALATGASCVGVEINEHNAKVAKEAWTHLRPVFEKRRGRKLDVSIVCGDFCKVLKQDNYFSSSCVVWIANLLMPRFVNHYLSERLRSLPIGSRVLCMEDLYPHSRSVAAARDPDAFEKFEMVDYRWQEDSVEWSPASGPFYLYIKRS | not soluble
MSNVIFSQKLYDTAQMVVDGCMGDADPACQTACPMHTDVKQYVRLAGEGNYQEALDLIRGKLFLPQTLGRICAHPCEAACRRNTEYNQPISVAGIKRFVAEKMDKQSNWDLTVANDSGKKIAIVGAGPAGAQAAIELRRSGHQVTIYEKLNVYGGMMRVGIPEYRLPRDVIDFEYGYLDMLGIETKFGIEIGKDISFNELRLSHDAIILAHGAHVGSIIPLPGHKAQGVFSAVEYLKEVSETRDFPRAGKRIMVIGGGDVAMDCARSSWRIGVDEVHQCSLEEMAKLPASQIEIDESLEEGVLFNAGWGPISIEETDGKVTGIVLKKVISIFDENGNFSPSYSDETRTIAVDTVIFATGQVVADITDGALEQTRGGRYVVDKDTLASSVDGVYVAGDACGGNIVVEAMALGHKAALSIERQFAKRPLTENRDFEKEYNYPSRLDIPLPKGTTDTPRLHGQLRDAEERKQDFKQVDLGFSEEQIKQEASRCLQCTCKLCMNECVMMNDFGDCPKTLFSDFINNKTMDPLLAYSCNACDQCTIVCPKDYPMKEMFLSARVDFVNANGGNSPIPGHKAINMHQKLGFSKFFTMAKRTVASKLEHHHHHH | not soluble
